Data on 1 substance can be found in patent US20220267796A1.

Assay [1] has as its target AAV9 (recombinant adeno-associated virus serotype 9 particles, capsid of VP1, VP2 and VP3 of AAV9) (adeno-associated virus 9 (AAV9)). Put plainly: affinity chromatography on AAVX column, standard elution at +18-26° C. with 100 mM Glycine, 200 mM NaCl pH 2.7; AAV9 ELISA of fraction. A general note: An ELISA detects its analyte on a solid surface through an enzyme-linked reagent.

The target is the same in assay [2]. Put plainly: affinity chromatography on AAVX column, strip at +2-8° C. with 100 mM Glycine, 200 mM NaCl pH 2.0; AAV9 ELISA of fraction.
Assay [3] shares this target. Kind of assay: batch adsorption at room temperature, then 30 min in 1 ml cold 125 mM NaCl/50 mM Tris HCl pH 8.5 at +2° C. to +8° C.; AAV9 ELISA of supernatant.
The target is the same in assay [4]. Put plainly: affinity chromatography on AAVX column, elution at +2-8° C. with 125 mM NaCl/50 mM TrisHCl pH 8.5; AAV9 ELISA of fraction.
Assay [5] has the same target. Kind of assay: affinity chromatography on AAVX column, +22-28° C., 100 mM NaAcetate/0.1% Tween 80 pH 6.0; AAV9 ELISA of fraction.
For assay [6] the target is unchanged. Put plainly: batch adsorption, 0.2 g resin + 9.6 g LOAD, 15 to 16 h at +2° C. to +8° C.; AAV9 ELISA of supernatant.
For assay [7] the target is unchanged. Put plainly: batch adsorption, 0.2 g resin + 9.6 g LOAD, 15 to 16 h at +18° C. to +30° C., 125 mM NaCl/50 mM Tris HCl pH 8.5; AAV9 ELISA of supernatant.
Assay [8] concerns the target AAV8 (recombinant adeno-associated virus serotype 8 particles, capsid of VP1, VP2 and VP3 of AAV8) (adeno-associated virus 8 (AAV8)). Kind of assay: affinity chromatography on AAVX column, +18-26° C., 125 mM NaCl/50 mM TrisHCl pH 8.5; AAV8 ELISA of fraction (load 23.2 x 10^11 cp/ml).
Assay [9] shares this target. Kind of assay: affinity chromatography on AAVX column, +18-26° C., 100 mM NaAcetate/0.1% Tween 80 pH 6.0; AAV8 ELISA of fraction.
Assay [10] deals with AAV9 (recombinant adeno-associated virus serotype 9 particles, capsid of VP1, VP2 and VP3 of AAV9) (adeno-associated virus 9 (AAV9)). Put plainly: affinity chromatography on AAVX column, gradient 1 mM to 20 mM HCl/200 mM NaCl at +2-8° C.; AAV9 ELISA of fraction.
Assay [11] shares this target. Kind of assay: affinity chromatography on AAVX column, +22-28° C., 125 mM NaCl/50 mM TrisHCl pH 8.5; AAV9 ELISA of fraction (load 2.86 x 10^11 cp/ml).
For assay [12], the target named is AAV8 (recombinant adeno-associated virus serotype 8 particles, capsid of VP1, VP2 and VP3 of AAV8) (adeno-associated virus 8 (AAV8)). Put plainly: affinity chromatography on AAVX column, +18-26° C., 125 mM NaCl/50 mM TrisHCl pH 8.5; AAV8 ELISA of fraction.
The target in assay [13] is AAV9 (recombinant adeno-associated virus serotype 9 particles, capsid of VP1, VP2 and VP3 of AAV9) (adeno-associated virus 9 (AAV9)). Put plainly: affinity chromatography on AAVX column, elution at +2-8° C. with 100 mM NaAcetate/0.1% Tween 80 pH 6.0; AAV9 ELISA of fraction.
In assay [14] the target is AAV8 (recombinant adeno-associated virus serotype 8 particles, capsid of VP1, VP2 and VP3 of AAV8) (adeno-associated virus 8 (AAV8)). Put plainly: affinity chromatography on AAVX column, +2-8° C., ELT-buffer pH 7.0; AAV8 ELISA of fraction.
The target is the same in assay [15]. Put plainly: affinity chromatography on AAVX column, gradient 1 mM to 20 mM HCl/200 mM NaCl at +2-8° C.; AAV8 ELISA of pooled fraction.
For assay [16], the target named is AAV9 (recombinant adeno-associated virus serotype 9 particles, capsid of VP1, VP2 and VP3 of AAV9) (adeno-associated virus 9 (AAV9)). Put plainly: affinity chromatography on AAVX column, +22-28° C., 125 mM NaCl/50 mM TrisHCl pH 8.5; AAV9 ELISA of fraction.
Assay [17] has as its target AAV8 (recombinant adeno-associated virus serotype 8 particles, capsid of VP1, VP2 and VP3 of AAV8) (adeno-associated virus 8 (AAV8)). Put plainly: affinity chromatography on AAVX column, +2-8° C., 100 mM NaAcetate/0.1% Tween 80 pH 6.0; AAV8 ELISA of fraction.
Assay [18] shares this target. Put plainly: affinity chromatography on AAVX column, +2-8° C., 125 mM NaCl/50 mM TrisHCl pH 8.5; AAV8 ELISA of fraction.

Some results are limits rather than exact numbers.

As to “POROS CaptureSelect AAVX Affinity Resin (Cat. No. 36742; Thermo Fisher), immobilised affinity ligand”, the AAV9 Antigen [%] of load released by acidic elution in assay [1] was found to be 81.5%. The AAV9 Antigen [%] of load released only by acidic strip in assay [2] worked out at 16.9%. Moreover, in assay [3], the % AAV9 Antigen in eluate (released at low temperature) was found to be 36.7%. Further, in [4], the AAV9 Antigen [%] of load released in low temperature eluate was found to be 44.8% and the AAV9 Antigen [%] of load released in low temperature eluate 3 was found to be 11.6%. In assay [5], the AAV9 Antigen [%] of load found in wash 2 stood at 0.04%, the AAV9 Antigen cp/ml in wash 2 was less than 3.8e+09 cp/ml and the AAV9 Antigen cp/ml in wash 4 is less than 3.8e+09 cp/ml. In addition, the % AAV9 Antigen in supernatant (not bound) after incubation at low temperature in assay [6] was 63.7%. Also, the % AAV9 Antigen in supernatant (not bound) after incubation at room temperature in assay [7] turned out to be 6.2%. In assay [8], the AAV8 Antigen cp/ml in flow-through/wash 1 (not bound) is less than 1.59e+09 cp/ml. Further, in assay [9], the AAV8 Antigen cp/ml in wash 2 was less than 1.59e+09 cp/ml and the AAV8 Antigen cp/ml in wash 4 was less than 1.59e+09 cp/ml. In addition, the AAV9 Antigen [%] of load released by acidic gradient in [10] stood at 5.42%. Moreover, in assay [11], the AAV9 Antigen cp/ml in flow-through/wash 1 (not bound) is less than 3.8e+09 cp/ml. Moreover, in assay [12], the AAV8 Antigen cp/ml in wash 3 is less than 1.59e+09 cp/ml. Moreover, the AAV9 Antigen [%] of load released in low temperature eluate 1 in assay [13] was determined as 61.2%. For the same substance, in assay [14], the AAV8 Antigen cp/ml in low temperature eluate 2 is less than 1.59e+09 cp/ml. In assay [15], the AAV8 Antigen [%] of load released by acidic gradient is 75.8%. Moreover, in [16], the AAV9 Antigen [%] of load found in flow-through/wash 1 (not bound) was 1.76%, the AAV9 Antigen [%] of load found in wash 3 is 0.04% and the AAV9 Antigen cp/ml in wash 3 is less than 3.8e+09 cp/ml. For the same substance, in assay [17], the AAV8 Antigen cp/ml in low temperature eluate 1 is less than 1.59e+09 cp/ml. Moreover, in assay [18], the AAV8 Antigen cp/ml in low temperature eluate 3 was less than 1.59e+09 cp/ml.
